Values of other authors in paper PMC6832444.

Molecular target: PD-L2 (Homo sapiens) (UniProt Q9BQ51)
UniProt Q9BQ51, sequence (Q9BQ51 20-220): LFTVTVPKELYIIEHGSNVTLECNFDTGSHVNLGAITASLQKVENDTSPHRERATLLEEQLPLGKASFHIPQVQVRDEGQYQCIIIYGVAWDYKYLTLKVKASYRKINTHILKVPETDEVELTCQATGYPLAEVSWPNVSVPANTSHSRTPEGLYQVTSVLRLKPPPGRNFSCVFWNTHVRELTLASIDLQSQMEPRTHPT

- Kd: 140 nM
Substance: PD-1 (from UniProt Q15116)
